Assay results as given in paper PMC6838084.

How the values were obtained:
[1] = molecular target: soluble C-terminal deletion mutant of human α2δ-1 with an N-terminal double strep II-tag (α2δ-1S NTST) (human); experiment: ELISA; ELISA-style titration; α2δ-1S NTST (20 µg/ml) coated; TSP-4 11-1,505 nM; TBS pH 7.4 without Ca2+; RT; apparent KD
[2] = molecular target: α2 peptide chain of human α2δ-1 with an N-terminal double strep II-tag (α2 NTST) (human); experiment: ELISA; ELISA-style ligand binding assay; α2δ-1S NTST (20 or 10 µg/ml) or α2 NTST (10 µg/ml) coated on 96-well plates; soluble TSP at a single concentration of 1,000 nM; TBS pH 7.4 with 1 mM Ca2+; 2 h at RT; detection with TSP-specific antibody/antiserum (Fig. 3A, 3C)
[3] = molecular target: soluble C-terminal deletion mutant of human α2δ-1 with an N-terminal double strep II-tag (α2δ-1S NTST) (human); experiment: ELISA; ELISA-style titration; α2δ-1S NTST (20 µg/ml) coated; TSP-4 11-1,505 nM; TBS pH 7.4 + 1 mM Ca2+; RT; apparent KD

thrombospondin-4 (TSP-4), recombinant full-length rat, N-terminal double strep II-tag, sequence (P49744 43-980): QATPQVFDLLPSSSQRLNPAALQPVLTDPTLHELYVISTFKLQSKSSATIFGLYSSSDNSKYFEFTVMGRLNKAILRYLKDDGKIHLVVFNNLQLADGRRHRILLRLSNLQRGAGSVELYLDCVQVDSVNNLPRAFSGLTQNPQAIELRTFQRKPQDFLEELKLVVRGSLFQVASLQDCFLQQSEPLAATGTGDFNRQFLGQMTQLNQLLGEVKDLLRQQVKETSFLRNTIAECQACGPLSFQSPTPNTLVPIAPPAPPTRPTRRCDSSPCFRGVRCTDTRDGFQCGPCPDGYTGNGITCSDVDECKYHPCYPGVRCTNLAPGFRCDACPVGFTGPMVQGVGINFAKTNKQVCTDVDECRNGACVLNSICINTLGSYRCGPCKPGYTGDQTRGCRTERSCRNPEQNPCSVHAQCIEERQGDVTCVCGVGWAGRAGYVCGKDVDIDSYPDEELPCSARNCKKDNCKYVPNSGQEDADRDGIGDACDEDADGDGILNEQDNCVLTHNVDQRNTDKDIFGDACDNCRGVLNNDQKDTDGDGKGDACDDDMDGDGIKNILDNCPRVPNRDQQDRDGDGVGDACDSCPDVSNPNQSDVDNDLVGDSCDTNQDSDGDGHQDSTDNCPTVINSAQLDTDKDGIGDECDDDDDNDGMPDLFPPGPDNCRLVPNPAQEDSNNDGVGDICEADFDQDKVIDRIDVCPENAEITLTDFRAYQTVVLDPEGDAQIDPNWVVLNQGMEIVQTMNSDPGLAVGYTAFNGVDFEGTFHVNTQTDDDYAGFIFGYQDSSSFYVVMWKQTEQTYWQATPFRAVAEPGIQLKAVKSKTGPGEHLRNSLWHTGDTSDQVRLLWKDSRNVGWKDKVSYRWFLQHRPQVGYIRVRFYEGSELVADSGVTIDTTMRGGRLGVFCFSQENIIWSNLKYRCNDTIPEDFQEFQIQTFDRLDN

Kd [1]: 0.198 µM
fold change of the binding signal against α2δ-1S NTST [2]: 2 fold
Kd [3]: 0.153 µM
Substance: thrombospondin-4 (TSP-4), recombinant full-length rat, N-terminal double strep II-tag (from UniProt P49744 43-980) (natural protein)
